Residue numbers refer to the chain shown, from its start. Read-outs that look alike come from different tables or passages of the source.

Broadly, the stoichiometry N is a count of units in the complex or per binding partner. As usually defined, the Kd is a measure of binding affinity in units of concentration. A high value points to a looser complex.

Data set [1] concerns the target Mature full-length TFAM (human mitochondrial transcription factor A, residues 43-246) (human) (UniProt Q00059). Nature of the data set: ITC. Background: In ITC the heat of successive injections is recorded.
Data set [2] shares this target. Nature of the data set: SEC-MALLS.
The target is the same in data set [3]. Nature of the data set: SEC-MALLS. The source holds these as a separate data set.
For data set [4] the target is unchanged. Put plainly: AUC.
For data set [5] the target is unchanged. Put plainly: AUC. This is another data set of the same source.
Data set [6] addresses T1, TFAM-C49A, A488 at C-terminal Cys246 (Homo sapiens, UniProt Q00059 43-246, C49A).
T1 sequence: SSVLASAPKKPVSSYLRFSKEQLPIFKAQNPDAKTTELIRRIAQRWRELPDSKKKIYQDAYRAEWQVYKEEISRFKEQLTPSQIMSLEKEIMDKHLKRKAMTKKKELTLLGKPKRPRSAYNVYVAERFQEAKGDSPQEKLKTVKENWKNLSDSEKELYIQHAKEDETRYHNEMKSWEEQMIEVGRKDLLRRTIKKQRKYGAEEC
Put plainly: FRET.

For data set [7], the target named is T2, TFAM WT (mature) (Homo sapiens, UniProt Q00059 43-246).
T2 sequence: T1 sequence with A7C
Put plainly: X-ray crystallography.

The data set “native gel or EMSA” concerns the molecule itself. Put plainly: native gel or EMSA. In general terms: A gel shift assay detects complexes by their altered migration in electrophoresis.
For data set [8], the target named is T1, TFAM-C49A, A488 at C-terminal Cys246. Nature of the data set: FRET. The source holds these as a separate data set.
Data set [9] has as its target T2, TFAM WT (mature). Nature of the data set: EMSA.
For data set [10], the target named is T1, TFAM-C49A, A488 at C-terminal Cys246. Put plainly: FRET. The source holds these as a separate data set.
For data set [11] the target is unchanged. Put plainly: FRET. This is another data set of the same source.

As to “Mature full-length TFAM (human mitochondrial transcription factor A, residues 43-246) (from UniProt Q00059 43-246) (natural protein)”, the stoichiometry N in data set [1], in data set [2], in data set [3], in [4] and in data set [5] was 2 each time.

B1: Site-X3* 28 (dsDNA)
DNA 1: TATCATAACAAAAAATTTCCACCAAACA
DNA 2: TGTTTGGTGGAAATTTTTTGTTATGATA
With B1, the binding result in [6] is “binds”.

B2: Site-YBr 22 (dsDNA)
DNA 1: TAACAATTGAATGTCTGCACAG
DNA 2: CTGTGCAGACATTCAATTGTTA
modifications: brominated at thymine positions (positions not given)
Regarding B2, the binding result with TFAM WT (mature) [7] is given as “binds”.

B3: TFAM C-terminal tail deletion mutant (TFAM-CTΔ26) (domain or fragment, human, UniProt Q00059 43-220, looked up)
chain: SSVLASCPKKPVSSYLRFSKEQLPIFKAQNPDAKTTELIRRIAQRWRELPDSKKKIYQDAYRAEWQVYKEEISRFKEQLTPSQIMSLEKEIMDKHLKRKAMTKKKELTLLGKPKRPRSAYNVYVAERFQEAKGDSPQEKLKTVKENWKNLSDSEKELYIQHAKEDETRYHNEMKSWEE
As for B3, in the data set “native gel or EMSA”, the binding result is “binds”.

B4: Site-X5* 28 (dsDNA)
DNA 1: TATCATAACAAAAAATTTCCACCAAACA
DNA 2: TGTTTGGTGGAAATTTTTTGTTATGATA
Consider B4, for which the binding result in data set [8] is given as “binds”.

B5: Site-X 22 (dsDNA)
DNA 1: TAACAAAAAATTTCCACCAAAC
DNA 2: TTTGGTGGAAATTTTTTGTTAG
For the molecule B5, the Kd in the data set with TFAM WT (mature) [9] was 13.6 ± 2.89 nM.

B6: Site-Y5* 28 (dsDNA)
DNA 1: TAGAGGCTGTGCAGACATTCAATTGTTA
DNA 2: TAACAATTGAATGTCTGCACAGCCTCTA
For the molecule B6, the binding result in data set [10] was “binds”.

B7: Site-Y3* 28 (dsDNA)
DNA 1: TAGAGGCTGTGCAGACATTCAATTGTTA
DNA 2: TAACAATTGAATGTCTGCACAGCCTCTA
As to B7, in [11], the binding result is listed as “binds”.

Source of the values: PMC6614842 (Nucleic Acids Research, 2019).
